In this series the test system is K562 CRISPRi cells. The series can be described thus: Constant region variant library pooled growth screen, K562. The format is cell-based, human. In a few lines:
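Growth screens in K562 CRISPRi cells were harvested 4-8 days post-selection at >2000× library coverage. Each variant's phenotype was referenced to the unmodified constant region with the same targeting sequence.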

The mark [1] stands for this setting: sgRNA constant region variant, activity relative to unmodified constant region cr995, mean CRISPRi activity.
Where [2] appears, read: sgRNA constant region variants, activity relative to the original, un-modified constant region cr995.

For 29 molecules, Mean relative activity results are on record in US20220259593A1, “CONTROL OF MAMMALIAN GENE DOSAGE USING CRISPR” (The Regents of the University of California, priority 2019, published 2022).

Substitutions are numbered along the chain they refer to.

B1: cr336 (nucleic acid)
guide: GTTTAAGAGCTAAGCTGGAAACAGCATAGCAAGTTTAAATAAGGGTACTCCGTTATCAAATTGAAAAATTGGCACCCAGTGGGTGCT
modifications: listed as DNA, chemistry not fully specified
B1 had a Mean relative activity under setting [1] of 0.01616.

B2: cr680 (nucleic acid)
guide: GTTTAAGAGCTAAGCTGGAAACAGCATAGCAAGTTTAAATAACGCTAGTCGGTTATCAACATGAAAATGTGGCTCCGAGTCGGAGCT
modifications: listed as DNA, chemistry not fully specified
Under setting [1], B2 gave a Mean relative activity of 0.02086.

B3: cr389 (nucleic acid)
guide: B2 guide with C43A, G44A, C50T, G51T, A61T, T68A, T74A, A84T
modifications: listed as DNA, chemistry not fully specified
Turning to B3, the Mean relative activity under setting [1] was 0.01944.

B4: cr418 (nucleic acid)
guide: B2 guide with T34G, C43G, G51C, T74A, A84T
modifications: listed as DNA, chemistry not fully specified
As to B4, under setting [1], the Mean relative activity was determined as 0.02069.

B5: cr186 (nucleic acid)
guide: B1 guide with T34G, G45C, C48G, A60G, T69C, C77G, G81C
modifications: listed as DNA, chemistry not fully specified
Under setting [1], B5 yielded a Mean relative activity of 0.0199.

B6: cr305 (nucleic acid)
guide: B2 guide with T34G, C43G, G51C, A61T, T68A, T74C, A84G
modifications: listed as DNA, chemistry not fully specified
On to B6, for which the Mean relative activity under setting [1] is 0.02073.

B7: cr519 (nucleic acid)
guide: B2 guide with T34G, C43G, G51C, A61T, T68A, T74G, A84C
modifications: listed as DNA, chemistry not fully specified
As to B7, the Mean relative activity under setting [1] was 0.01933.

B8: cr504 (nucleic acid)
guide: B2 guide with T34G, C43G, G51C, A61T, T62G, A67C, T68A, T74A, A84T
modifications: listed as DNA, chemistry not fully specified
Under setting [1], B8 registered a Mean relative activity of 0.01685.

B9: cr448 (nucleic acid)
guide: B2 guide with G33C, C43G, G44C, C50G, G51C, A61T, T68A, T74A, A84T
modifications: listed as DNA, chemistry not fully specified
Consider B9, for which the Mean relative activity under setting [1] is 0.01746.

B10: cr864 (nucleic acid)
guide: B2 guide with G29A, A41T, C43G, G51C, A61T, T68A, T74A, A84T
modifications: listed as DNA, chemistry not fully specified
Under setting [1], B10 came in with a Mean relative activity of 0.01678.

B11: cr834 (nucleic acid)
guide: B2 guide with T34G, C43G, G51C, A61T, A65G, T68A, T74A, A84T
modifications: listed as DNA, chemistry not fully specified
The molecule B11 showed a Mean relative activity under setting [1] of 0.01861.

B12: cr170 (nucleic acid)
guide: B2 guide with T34G, C43G, G51C, A61T, T68A, G72A, T74A, A84T, C86T
modifications: listed as DNA, chemistry not fully specified
As to B12, the Mean relative activity under setting [1] is given as 0.01501.

B13: cr324 (nucleic acid)
guide: B2 guide with A61C, T68G, T74A, A84T
modifications: listed as DNA, chemistry not fully specified
In the case of B13, under setting [1], the Mean relative activity is listed as 0.01711.

B14: cr507 (nucleic acid)
guide: B2 guide with C43T, G51A, A61T, T68A, T74A, C76A, G82T, A84T
modifications: listed as DNA, chemistry not fully specified
B14 gave a Mean relative activity under setting [1] of 0.01954.

B15: cr031 (nucleic acid)
guide: B2 guide with T3A, T4A, C43G, G51C, A61T, T68A, T74A, A84T
modifications: listed as DNA, chemistry not fully specified
Under setting [1], B15 returned a Mean relative activity of 0.01677.

B16: cr496 (nucleic acid)
guide: B2 guide with G29A, C43G, G51C, G52T, A61T, T68A, T74A, T80A, A84T
modifications: listed as DNA, chemistry not fully specified
In the case of B16, under setting [1], the Mean relative activity was found to be 0.02078.

B17: cr963 (nucleic acid)
guide: B2 guide with A61T, T68A, T74G, C76T, G82A, A84C
modifications: listed as DNA, chemistry not fully specified
Turning to B17, under setting [1], the Mean relative activity is listed as 0.01551.

B18: cr261 (nucleic acid)
guide: B2 guide with T34G, C43G, G51C, T53G, A61T, T68A, T74A, A84T
modifications: listed as DNA, chemistry not fully specified
As for B18, the Mean relative activity under setting [1] stood at 0.01441.

B19: cr042 (nucleic acid)
guide: B2 guide with T3G, T4G, C43G, G51C, A61T, T68A, T74A, A84T
modifications: listed as DNA, chemistry not fully specified
In turn, B19 had a Mean relative activity under setting [1] of 0.0164.

B20: cr462 (nucleic acid)
guide: B2 guide with G33A, T34A, C43G, G51C, A61T, T68A, T74A, A84T
modifications: listed as DNA, chemistry not fully specified
For B20, the Mean relative activity under setting [1] came out at 0.01488.

B21: cr951 (nucleic acid)
guide: B2 guide with C43G, G51C, A61T, A65G, T68A
modifications: listed as DNA, chemistry not fully specified
Take B21: the Mean relative activity under setting [2] amounted to 1.034.

B22: cr731 (nucleic acid)
guide: B2 guide with T34G, C43G, G51C, A61T, T68A, C73T, T74A, A84T, G85A
modifications: listed as DNA, chemistry not fully specified
Take B22: under setting [1], the Mean relative activity stood at 0.01505.

B23: cr964 (nucleic acid)
guide: B2 guide with A31T, C43G, G51C, A61T, A65G, T68A, T74A, A84T
modifications: listed as DNA, chemistry not fully specified
B23 had a Mean relative activity under setting [2] of 1.033.

B24: cr954 (nucleic acid)
guide: B1 guide with T34G, G45C, C48G, C77G, G81C
modifications: listed as DNA, chemistry not fully specified
Under setting [1], B24 yielded a Mean relative activity of 0.01751.

B25: cr541 (nucleic acid)
guide: B1 guide with G43A, C51T, A60C, T69G, C73T, C77G, G81C, G85A
modifications: listed as DNA, chemistry not fully specified
For B25, the Mean relative activity under setting [1] worked out at 0.01856.

B26: cr382 (nucleic acid)
guide: B2 guide with T34G, A61T, T68A, T74A, A84T
modifications: listed as DNA, chemistry not fully specified
In turn, B26 had a Mean relative activity under setting [1] of 0.01715.

B27: cr987 (nucleic acid)
guide: B2 guide with C43G, T49G, G51C, A61T, A65T, T68A, T74A, A84T
modifications: listed as DNA, chemistry not fully specified
As for B27, the Mean relative activity under setting [1] was found to be 0.01815.

B28: cr263 (nucleic acid)
guide: B2 guide with C43G, G51C, A61T, A66C, T68A, T74A, A84T
modifications: listed as DNA, chemistry not fully specified
Under setting [2], B28 had a Mean relative activity of 1.033.

B29: cr841 (nucleic acid)
guide: B2 guide with T34G, C43G, G51C, A59C, A61T, T68A, T70G, T74A, A84T
modifications: listed as DNA, chemistry not fully specified
In the case of B29, under setting [1], the Mean relative activity is on record as 0.01636.
